The text below walks through data of publication PMC10546719.

The target of assay [1] is syndecan-1 (human (endogenous in Caco-2)) (UniProt P18827).
Assay [2] has the same target. The source holds these as a separate data set.

Sequence of UniProt P18827 (P18827 23-310): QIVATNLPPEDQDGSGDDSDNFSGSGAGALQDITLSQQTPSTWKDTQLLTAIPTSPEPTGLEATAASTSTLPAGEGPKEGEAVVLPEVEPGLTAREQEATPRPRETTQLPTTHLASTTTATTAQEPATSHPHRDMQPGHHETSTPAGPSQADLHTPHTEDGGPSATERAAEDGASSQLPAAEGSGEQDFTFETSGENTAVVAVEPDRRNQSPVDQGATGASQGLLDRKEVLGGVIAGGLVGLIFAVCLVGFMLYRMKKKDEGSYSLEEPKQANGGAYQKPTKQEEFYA

Consider “recombinant Trichinella spiralis C-type lectin with GST tag (GST-rTsCTL) (natural protein)”, for which the reduction of the rTsCTL (10 µg/mL) promotion of larval invasion of Caco-2 cells by 2.5-20 mM β-xyloside in assay [1] was 46.8%. Besides, the inhibition of the rTsCTL (10 µg/mL) promotion of larval invasion of Caco-2 cells by 2.5-20 µM Stattic in assay [2] stood at 49.3%.
